Test results taken from the DeepSol protein solubility set.

Assay: soluble on expression in E. coli; label from the status in PepcDB or PDB records

Sequence	soluble on expression in E. coli
MAHHHHHHMANRTDASAIKNFGSNPQYLISNIIRSKIYDSPYWKEKCFALTSESIIDQAINLKYVGGTYGGNRKPTRFLCLILKLLQIQPDKDIIYEYIKNEDFVYLRALGIFYLRLIGKSLEVYNHLEPILFDYRKIRMRLQNGTFEKIYMDVFVDNCLILNNFLDVDFPTLTKRQVLEENNLLQRKNLEYYKALLNISSDNELFKNNEDTTHNKNKEINKNKNEYKQRDMLERHKKINKYSSEDDHNYYHKKEGNYDKNKKHNKIYNHKYNNKYDDEERRHHSDYSSDMDRKSRKKEKKRTHSKYDHKKKKEKRNYSSDSKHSFTSSEYSVQNKKEEHDKKKKKLFFLKKQKKKNYHSSSQSNHSYDENKKDELSIDKWNEIRKELGMKPLK	soluble
MARGPKKHLKRLAAPKAWMLDKLGGVFAPRPSTGPHKLRESLPLLIFLRNRLKYALNGAEVTKIVMQRLVKVDGKVRTDPTYPAGYMDVITLEKTGEFFRLVYDVKGRFVIHRISAEEAKYKLCKVKKTQLGAKGVPFLVTHDGRTIRYPDPLIHANDSVQVDIASGKITDYIKFDSGNLCMITGGRNLGRVGTVVNRERHPGSFDIVHIKDSQGHVFATRLTNVFIIGKGNKPYISLPKGKGVKLSIAEERDKRLAAKTH	not soluble
MGHHHHHHGGHMSLSAYKTVVVGTDGSDSSMRAVDRAAQIAGADAKLIIASAYLPQHEDARAADILKDESYKVTGTAPIYEILHDAKERAHNAGAKNVEERPIVGAPVDALVNLADEEKADLLVVGNVGLSTIAGRLLGSVPANVSRRAKVDVLIVHTTEGGS	soluble
MLPAVPPQQWALSAGNGSSEVEVVPFQEVWGRSYCRALERLVDVVSEYPSEVEHMFSPSCVSLLRCTGCCGDENLHCVPVETANVTMQLLKIRSGDRPSYVELTFSQHVRCECRPLREKMKPERCGDAVPRR	soluble
MGSDKIHHHHHHMGVKTAAIKPQINRFFERIINMIIDRERVKNTFAEYTSGYNATDPKIKLKIDHTYRVAELCELIARNLKLDEYETDVAWLTGMLHDVGRFEQIKCYNTFNDALSVDHANFGADLLFKEGLIDTYVDGFHDDKYGTIVENAIRNHSAFRIDERLDEYTVMFCNILRDADKVDIFRVNVDTPAEDIYNVTTEELKNSQVSPEVMAAFDERHAVLRSCKKTVVDHVAGHIALTFELVYPISLQIANERGYLDKMMAFESDNEVTGKQFEEIRAKLNEYVASVKPL	not soluble
MGSDKIHHHHHHVNVAQPEPGSGPTVRRMLLGSQLRRLREAKGISRADAAYKIRGSESKISRIELGRVGFKTRDVEDLLTFYGVEDEAVRDSFLKLAREANEPGWWQQYGDSLPSWFQSYVGMEEAATQLRVYETQFVPGLLQTEDYARAVVTRGGRKKLDDAARHRIATRMRRQERIRKNHNVKLWVIIDEPAVRRPVGTPEVMRAQLEHLYDLSMAPNITLQIVPFHQGVFAAETGSFTILRYPEYDLPDVVYVEQLTSCLFQEKRADVEQYTMTLEWLAVVAERPDQTRKMLQKMIKELEE	not soluble
MGSDKIHHHHHHMESIENSYGRLLLESQLPDSAKQLAQPLKSVVILRGKMICQRCHYQLDEEARLPSGAYYCRFCLVFGRNQSDKLLYAIPPMHFPKGNYLVWGGQLTAYQEMISQQLLINMQNQKTTLVHAVTGAGKTEMIYAAIEAVINTGGWVCIASPRVDVCVEVATRLSQAFSCSICLMHAESLPYQRAPIIVATTHQLLKFHKAFDLLIIDEVDAFPFVNNIQLHYAASQALKEGGAKILLTATSTRTLERKVNKGEVVKLTLARRFHNRPLVIPKFIRSFNLFKMIHRQKLPLKILKYLKKQRKTGYPLLIFLPTIIMAESVTAILKELLPAEQIACVSSQSQNRKEDITAFRQGKKTILITTSILERGVTFPQIDVFVLGSHHRVYSSQSLVQIAGRVGRSIDRPDGTLYFFHEGISKAMLLARKEIKEMNYKGYSHDLSTMSTN	not soluble
ATRDFLQRAEAAYKTDGGAAGLGQKAFVKMMQEVCELPSMVAYSLFKRLTGCEAGEEEGAAVPRDTFIKFWTGRGLVTAPPPKRAFDSLRPDGQDYLTFADFWPMMECVLRYHPGLEFLAETQEFQRKYAETVIHRIFYSLNKCGSGRLTFREFRSGELMDALYALDRENDINKILKFFSYEHFYVIYCKFWELDQDHDFQLDKTDLAHYSNCALSYVIVDRIFEEAPRKFKAGTPPGKMCYEDFVWFILSEEDKTTDTALTYWFRCVDLDGDGVIRPREMLYFYEEQLRRLEGWNQEPVQFEDLLCQLHDMLSPAKEGAFTLRDLKRTKPQSGLFFSSLFSLHKFVGFENRDPFAQRAEAAEFTGLSDWDKFAKIEYFRLASEDD	soluble
